13 molecules from patent US20240116985A1 (published 2024) can be followed below.

B1: I-55 (peptide)
peptide: Ac-[αAllylPro]DA[B5(4)]DDAAFV[SdN]FWQ-NH2
modifications: staple 1-4, 4-11
notes: Stapled (stitched) peptide; also called Ac-PL3-Asp-Ala-B5-Asp-Asp-Ala-Ala-Phe-Val-SdN-Phe-Trp-Gln-NH2
B2: I-67 (peptide)
peptide: Ac-ADI[RdN]DEAAFQ[S7]FWH-NH2
modifications: staple 4-11
notes: Stapled peptide; also called Ac-Ala-Asp-Ile-RdN-Asp-Glu-Ala-Ala-Phe-Gln-S7-Phe-Trp-His-NH2
B3: I-66 (peptide)
peptide: Ac-ADI[RdN]DEAAFQ[S7]FWH-NH2
modifications: staple 4-11; not fully specified
notes: as for B2
B4: I-64 (peptide)
peptide: Ac-ADI[RdN]DDAAFQ[S7]FWH-NH2
modifications: staple 4-11; not fully specified
notes: Stapled peptide; also called Ac-Ala-Asp-Ile-RdN-Asp-Asp-Ala-Ala-Phe-Gln-S7-Phe-Trp-His-NH2

Starred links: 1 amine or outer side, 2 acyl side, 3 side chain; linkers in the order of their positions; H or OH if unused. Positions of bridges follow the written chain, without caps; N, C: chain ends. Non-standard residues stand in square brackets, D forms with d. Primed or numbered codes have the meaning given here. PyrS2(3) = (S)-3-amino-1-((pent-4-en-1-yloxy)carbonyl)pyrrolidine-3-carboxylic acid, stapling residue, C=CCCCOC(=O)N1CC[C@@](N[*:1])(C(=O)[*:2])C1; PyrS2″ = (S)-3-amino-1-((pent-4-en-1-yloxy)carbonyl)pyrrolidine-3-carboxylic acid (stapling residue), C=CCCCOC(=O)N1CC[C@@](N[*:1])(C(=O)[*:2])C1; B5(16) = 2-amino-2-(pent-4-en-1-yl)hept-6-enoic acid = 2,2-bis(4-pentenyl)glycine (stitching residue), C=CCCCC(CCCC=C)(N[*:1])C(=O)[*:2]; B5(4) = 2,2-bis(4-pentenyl)glycine = 2-amino-2-(pent-4-en-1-yl)hept-6-enoic acid (stitching residue), C=CCCCC(CCCC=C)(N[*:1])C(=O)[*:2]; RdN = (R)-4-(((allyloxy)carbonyl)(methyl)amino)-2-amino-2-methylbutanoic acid, C=CCOC(=O)N(C)CC[C@@](C)(N[*:1])C(=O)[*:2]; SdN = (S)-4-(((allyloxy)carbonyl)(methyl)amino)-2-amino-2-methylbutanoic acid, C=CCOC(=O)N(C)CC[C@](C)(N[*:1])C(=O)[*:2]; Phe(3,5-F2) = N[C@@H](Cc1cc(F)cc(F)c1)C(=O)O; S7 = C[C@@](CCCCCC=[*:3])(N[*:1])C(=O)[*:2]; Phe(2-Cl) = N[C@@H](Cc1ccccc1Cl)C(=O)O; Bta = N[C@@H](Cc1csc2ccccc12)C(=O)O; αAllylPro = C=CC[C@@]1(C(=O)O)CCCN1; tBuAla = CC(C)(C)C[C@H](N)C(=O)O; Cha = N[C@@H](CC1CCCCC1)C(=O)O; S8 = C=CCCCCCC[C@](C)(N)C(=O)O; R5 = C=CCCC[C@@](C)(N)C(=O)O

In one assay the target is T1, full-length beta-Catenin (Uniprot ID P35222) (Homo sapiens (Human), UniProt P35222 2-781).
T1 construct: Used full-length in both the FP and the AlphaScreen assay; also called B-Catenin; bCat
T1 sequence: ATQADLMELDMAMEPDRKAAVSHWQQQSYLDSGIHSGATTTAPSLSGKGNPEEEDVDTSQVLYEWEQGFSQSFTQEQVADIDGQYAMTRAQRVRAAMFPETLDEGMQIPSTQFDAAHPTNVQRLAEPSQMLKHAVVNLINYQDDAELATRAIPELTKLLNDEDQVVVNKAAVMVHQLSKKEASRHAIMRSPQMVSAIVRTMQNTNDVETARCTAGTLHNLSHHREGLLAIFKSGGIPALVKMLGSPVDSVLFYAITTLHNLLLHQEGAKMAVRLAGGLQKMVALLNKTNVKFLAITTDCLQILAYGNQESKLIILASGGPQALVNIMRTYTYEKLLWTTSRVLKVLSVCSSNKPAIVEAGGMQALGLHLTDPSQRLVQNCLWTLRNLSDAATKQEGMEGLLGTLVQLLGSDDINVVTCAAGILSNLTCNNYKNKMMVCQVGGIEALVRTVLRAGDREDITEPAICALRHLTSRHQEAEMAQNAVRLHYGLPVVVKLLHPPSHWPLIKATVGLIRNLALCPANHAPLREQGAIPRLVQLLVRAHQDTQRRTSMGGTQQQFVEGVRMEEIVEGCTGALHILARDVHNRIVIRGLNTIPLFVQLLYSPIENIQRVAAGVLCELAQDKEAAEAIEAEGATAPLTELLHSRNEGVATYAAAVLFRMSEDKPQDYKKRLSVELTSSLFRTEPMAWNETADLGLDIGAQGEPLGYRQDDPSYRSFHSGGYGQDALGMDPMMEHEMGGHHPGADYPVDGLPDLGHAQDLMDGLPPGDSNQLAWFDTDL
Kind of assay: AlphaScreen competition; full-length beta-catenin, biotin-TCF4(10-53) probe. Here is the method: Equal volume of the titrated peptide was added to the plate and incubated for 15 minutes at 20° C. Then 4 uL of donor and 4 uL acceptor beads at 10 ug/mL were added to the plate, for a 16 uL reaction pool and protected from light for 60 minutes at 20° C. prior to read. Reads were performed on a CLARIOstar plate reader (BMG Labtech) in duplicate, and data were fitted to a 1:1 binding model with hill slope using an in-house script. All provided concentrations are final concentrations.
Consider B1, for which a half-maximal response (EC50) required 2380 nM.

On to B2, for which a half-maximal effect (EC50) was put at 154 nM.

B3: the EC50 (commonly the midpoint of the concentration-response curve) was found to be 174 nM.

Another assay has as its target T1, full-length beta-Catenin (Uniprot ID …). Kind of assay: fluorescence polarization competition; full-length beta-catenin, 5FAM-TCF4(10-53) probe. How it is done:
(§1) The plate was incubated protected from light for 60 minutes at 20° C. prior to read. Reads were performed on a CLARIOstar plate reader (BMG Labtech) in duplicate, and data were fitted to a 1:1 binding model with hill slope using an in-house script. All provided concentrations are final concentrations.
A general note: Fluorescence polarisation rises when a labelled molecule tumbles more slowly, as on binding a larger partner.
Turning to B1, the EC50 was found to be 5000 nM.

For B4, the EC50 is 4250 nM.

Take B2: a half-maximal response (EC50) required 1230 nM.

The molecule B3 displayed an EC50 of 1090 nM.

The next assay deals with T2, full-length beta-Catenin (Uniprot ID P35222) (Homo sapiens (Human), UniProt P35222 1-781).
T2 construct: also called bCat
T2 sequence: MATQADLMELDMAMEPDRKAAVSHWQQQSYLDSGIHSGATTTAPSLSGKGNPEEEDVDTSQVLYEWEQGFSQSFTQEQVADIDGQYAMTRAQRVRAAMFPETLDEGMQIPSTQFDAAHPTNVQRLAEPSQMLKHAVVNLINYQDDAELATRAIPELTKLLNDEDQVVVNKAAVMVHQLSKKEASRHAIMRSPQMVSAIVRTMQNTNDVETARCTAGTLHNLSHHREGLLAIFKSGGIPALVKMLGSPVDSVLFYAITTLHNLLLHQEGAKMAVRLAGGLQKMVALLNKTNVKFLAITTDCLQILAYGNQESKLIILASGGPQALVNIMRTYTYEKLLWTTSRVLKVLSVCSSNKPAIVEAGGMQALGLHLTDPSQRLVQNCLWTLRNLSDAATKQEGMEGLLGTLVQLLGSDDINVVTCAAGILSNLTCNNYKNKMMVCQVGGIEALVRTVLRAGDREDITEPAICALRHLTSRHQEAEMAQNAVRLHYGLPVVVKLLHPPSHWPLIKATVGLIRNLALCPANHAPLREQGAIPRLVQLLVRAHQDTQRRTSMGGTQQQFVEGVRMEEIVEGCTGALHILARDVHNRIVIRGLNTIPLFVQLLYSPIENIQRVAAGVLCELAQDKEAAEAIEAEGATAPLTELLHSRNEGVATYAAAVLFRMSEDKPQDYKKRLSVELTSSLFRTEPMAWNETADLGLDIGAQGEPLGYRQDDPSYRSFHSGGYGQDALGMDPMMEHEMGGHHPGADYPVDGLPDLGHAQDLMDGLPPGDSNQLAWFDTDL
Kind of assay: fluorescence polarization competition; full-length beta-catenin; competitor 5FAM-TCF4(10-53) probe. How it is done:
as §1
With Ac-PD[Cha][R5]DDAAFT[PyrS2(3)][Phe(2-Cl)][Bta]S-NH2 (staple 4-11, stapled peptide (single staple)) [I-1184], the EC50 was 176 nM.

Ac-[αAllylPro]DF[B5(16)]DDLLFS[PyrS2″][Phe(2-Cl)][Bta]Q-NH2 (staple 1-4, 4-11, stapled peptide) [I-1155] yielded an EC50 of 60 nM.

Ac-[αAllylPro]DF[B5(16)]DDLAFS[PyrS2″][Phe(2-Cl)][Bta]Q-NH2 (staple 1-4, 4-11, stapled peptide) [I-1153] came in with an EC50 of 12 nM.

In turn, Ac-[αAllylPro]DF[B5(16)]DDALFS[PyrS2″][Phe(2-Cl)][Bta]Q-NH2 (staple 1-4, 4-11, stapled peptide) [I-1154] returned an EC50 of 45 nM.

Molecule Ac-PD[tBuAla][R5]DDAAFN[PyrS2(3)][Phe(2-Cl)][Bta]Q-NH2 (staple 4-11, stapled peptide (single staple)) [I-1183] returned an EC50 of 409 nM.

Turning to Ac-[αAllylPro]DF[B5(4)]DDLLFT[PyrS2″][Phe(2-Cl)][Bta]S-NH2 (staple 1-4, 4-11, stapled peptide) [I-1158], the midpoint of the response, the EC50, lay at 168 nM.

The molecule Ac-[αAllylPro]DF[B5(4)]DDALFT[PyrS2″][Phe(2-Cl)][Bta]S-NH2 (staple 1-4, 4-11, stapled peptide) [I-1157] showed an EC50 of 36 nM.

Ac-[αAllylPro]DF[B5(16)]DDLAFT[PyrS2″][Phe(2-Cl)][Bta]S-NH2 (staple 1-4, 4-11, stapled peptide) [I-1156] gave an EC50 of 14 nM.

For the next assay, the target named is T3, beta-Catenin (full-length, Uniprot ID P35222) (Homo sapiens (Human), UniProt P35222 1-781).
T3 construct: also called bCat; B-Catenin
T3 sequence: T2 sequence
Kind of assay: fluorescence polarization competition: peptide titrated against 10 nM full-length beta-catenin + 10 nM 5FAM-labeled TCF4 residues 10-53 probe. Here is the method: as §1
As for Ac-[αAllylPro]DA[B5(4)]DEAA[Phe(3,5-F2)]V[S8]FWQ-NH2 (staple 1-4, 4-11, Stapled (stitched) peptide) [I-219: Ac-PL3-Asp-Ala-B5-Asp-Glu-Ala-Ala-35FF-Val-S8-Phe-Trp-Gln-NH2], the IC50 (usually the point on the concentration scale where inhibition reaches its midpoint) is 2860 nM.
